Reference: the DeepSol protein solubility set

Assay: soluble on expression in E. coli; label from the status in PepcDB or PDB records

Row | Sequence | soluble on expression in E. coli
1 | MGSDKIHHHHHHMKSYKNYIFDFYGTLVDIRTDENKLEVWNQLTQIYNAFGCSYRPRQLKNAYHRFVEEAERFLAETVSYQYVEIDLETLFIRLLTDAPNENQSTNKPTDLETFGQVVATIFRVLSREKLEAYENTLTSLQTLAARAARLFILSNAQRIFTQAEIEQTGCADLMEKIYISSDFKMKKPEPAFLQLVLEENNLDVKETVMVGNDLTSDIAIAHELGMDSILLNTFPYSQEEIDSYRRLGWNFEVVGDIAELL | not soluble
2 | MSYDANLTKYMDFLVKKTKNAAEPTTFKEIFDEYSRLDPDRSTYSMCYDKFHHRLAPIMNELNTYSIRERVRVMLTMGGKVSKDFLTTIEKLGTVQLDEKRRILKYASKDGKFKIEGARSEFMDFLIQQTRDAVRPMTSTSIAKEFCRIKDRQVSVDTFNKKFRRNLAPNMSRWSSYLLGDRIRMMFVLKGTVRTDFLAEIEKSGTVQLDDQRRIVRYASNDGMIELEEKTSGVKRRRSTKSSNTPTKRREITENELSDTDDVEVMEIVDGYVEQESASFDFEELVNREASYNLDQGHLYREILEAPLLENRDSKFNPFNAKSGRQAEVQRSGTFLNESEGTSTNAQESFVFRGFLKQEPVFEQFHIQNMSNNLVNLPIPPEIEETPVQEGHHVEPSGITGSDGIRLHKFLNSLELMLTSLESDTLNDLMQEIEEIRRRTDEILPSELVITTLQTFFLGITRKFRPETSAPSKSAKECLRIFKYALLWLKNPLLYDLQKRVQDEIENHEADGKVLLIADVQQGIRNILFTVV | not soluble
3 | MSLTHPDFTILYVDNPPASTQFYKALLGVDPVESSPTFSLFVLANGMKLGLWSRHTVEPKASVTGGGGELAFRVENDAQVDETFAGWKASGVAMLQQPAKMEFGYTFTAADPDSHRLRVYAFAGEGHHHHHH | not soluble
4 | MGHHHHHHSHAKGKSAGLVKATGRNMEQFQVSVSVAPNAKITFELVYEELLKRRLGVYELLLKVRPQQLVKHLQMDIHIFEPQGISFLETESTFMTNQLVDALTTWQNKTKAHIRFKPTLSQQQKSPEQQETVLDGNLIIRYDVDRAISGGSIQIENGYFVHYFAPEGLTTMPKNVVFVIDKSGSMSGRKIQQTREALIKILDDLSPRDQFNLIVFSTEATQWRPSLVPASAENVNKARSFAAGIQALGGTNINDAMLMAVQLLDSSNQEERLPEGSVSLIILLTDGDPTVGETNPR | not soluble
5 | MTEEQFSSYHPPLPPTTEEDRFSWLRLLRSRRVGPTTFRRLMHEHGTAQNALAALPEVARAAGVEGYEICPPGVVEAELKAAKAAKARLLCLGDADYPSHLAGISDAPPLLWLLGDPALLRRPMIALVGARNASSLGTRMARALAQDLGTAGFVVVSGLARGIDTAAHLAALPSGTIAVMAGGVDTVYPAENTHLAADIAQHGLRLSEQPMRLTPQARHFPRRNRIISGLAQAVVVVEAAAKSGSLITARDALDQGREVLAVPGHPFDARAAGCNMLIRDGAHLVRNAEDVITALPALTAPQPQPDLCDLMQQPAPPAKRSLRETVALHSLILDRLGPSPVAEDQLIRDLAASPGEVAPVLVDLELEGRINRQAGGLLSRVN | not soluble
6 | MGSDKIHHHHHHMTSYRIGIDVGGTHTDAVLLDETNQVMAETKAPTTEDVSRGIYQAMRDVIESAQVDRTRIDYAMLGTTHCTNAIVERKRLNTVGIIRIGAPATLAVKPLIGVPDDLRTLLGKHVYIVSGGHEFDGREIASLDEDHLYEIAHEIKGAVDSVAITSVFSPVSDNHEVRAAEIIREILGEAIPISLSKEIGSVGLLERENATILNASVVNVAQATAEGFVAALKEEGIEANVFFGQNDGTLMSVEYAKKYPILTIACGPTNSLRGASFLTGKENAIVVDVGGTTTDIGVLAQSFPRESSLAVEIGGARTNFRMPDLVSIGLGGGTIIRVNETDGTFTIGPESVGYRLPEKGLVFGGDTLTTTDVVVALGRANIGDRSKVAHLDKELLRRIYDRMVEMVEMAVDQMKTSSGDAPVILVGGGSILLPDQLRGASEVMKPEHLGVANAIGAAIAQVSGQIERVFSLDERGREQTLAYAKDLAREEAIKAGADPSDLTIVDVEDVPLAYLPGNATRIRVKAAGPLGSASAEQYEKGNVIP | not soluble
7 | ILPQPDVRVNQVGYLPEGKKVATVVCNSTQPVKWQLKNAAGVVVLEGYTEPKGLDKDSQDYVHWLDFSDFATEGIGYYFELPTVNSPTNYSHPFDIRKDIYTQMKYDALAFFYHKRSGIPIEMPYAGGEQWTRPAGHIGIEPNKGDTNVPTWPQDDEYAGIPQKNYTKDVTGGWYDAGDHGKYVVNGGIAVWTLMNMYERAKIRGLDNWGPYRDGGMNIPEQNNGYPDILDEARWEIEFFKKMQVTEKEDPSIAGMVHHKIHDFRWTALGMLPHEDPQPRYLRPVSTAATLNFAATLAQSARLWKDYDPTFAADCLEKAEIAWQAALKHPDIYAEYTPGSGGPGGGPYNDDYVGDEFYWAACELYVTTGKDEYKNYLMNSPHYLEMPAKMGENGGANGEDNGLWGCFTWGTTQGLGTITLALVENGLPATDIQKARNNIAKAADRWLENIEEQGYRLPIKQAEDERGGYPWGSNSFILNQMIVMGYAYDFTGDSKYLDGMFDGISYLLGRNAMDQSYVTGYGERPLQNPHDRFWTPQTSKRFPAPPPGIISGGPNSRFEDPTINAAVKKDTPPQKCFIDHTDSWSTNEITVNWNAPFAWVTAYLDQYTD | soluble
8 | MSGLTKIKPPKKARIGLYSAGLNTYWGQFEGLYDCLMGYNRFIEKRLSEWGEVFNFGMVDTEEKGREAGEFFNKNNVDIVFSHAATYYASATVLPVHQINNAPVIILNLQPTAEMAYDTTGTDRWLAQCVGCSIPEISNAFNRAGITFRAVNGLLGLTETPDFAKADEVTCERPEAVRAWKQIEEWCRAAAVKRNLQWARFGFLGGYYSGMLDMYSDFTMLQAQTGIDIEVLEMSDLDAYLKTVTEEEVQEKLKEIQDFFEISGDSPSDPIAKKPTEEQLTWSAKVAIAQEKMVRERNLDSVSYYYHGRDDYLEEVQSGFIVGFSLLNAQGIACAGEGDIKTALAMKIADICGTGGSFCEIVAADFNRDTMILGHDGPFHFAISKGKPILRGMGVYHGKRGSGVSVEAKVRPGAVTTLGVTQTGDGRLKFNISEGEAIDAPILLNGNTSTHIRFSQKPAEYMDRWFQEAPTHHLALSVGHNAELFKKIAELMDIPYAIY | soluble
9 | MSKYAGIVLAGGMSSRFGEPKALAIWKETTFVEHIVKVMGNTLQDIVVISHTDIKERVEQFVQVPVIEDIPHYKGNGPLAGIVSGMEYIEADWYAIMPCDAPNVSHEWFTILLEQTNNEYDAVVPIINGRKQPLLAAYHNRVKEKIYALLQEEKRSMGQLLSQCNVKYVSGEDVQANADWFINVNTKEEYVQAQKDLSNE | soluble
10 | MGSDKIHHHHHHMHSFHDAFSAPNAGNDTEAKRLPAKRRIRLKTAVLGVLLLASVAAQAEPRLTDLQYIGSHNSYHAGFAPSEATLLKQHDPAAFATLDYRHPPLTQQLDDGVRQLELDVFADAHGGRYAHPAIVEQIAKAGLPPAPASAPAGVMNKPGFKVLHVQDVDQRSTCQPLVTCLQEVRAWSQQHPGHLPIFILLETKQSPVQLSFPTVQPEPFDRKAMDALDAELRSVFRPGEYVSPDTVRGTARTLNAAVLAHGWPALRATRGKVVFLLDQRAAGASYLPGHPSLRGRVCFTNAEPGQDDAAFTERNDGPAEDITRLVQAGYLVRTRTDADLKEPARGDNRRRDAMLATGAQLLSTDFPAHEPARNGYVVRFDGDAVARCAPQLPRAHCEGVDLTH | not soluble
11 | LSNTRVQSRTAKVGYQAGVAINLKTSDYFSIRPEVLYNIMGGDTQYGDDEGNTKVLKNRYDYLSIPLNFVATFEAGPGKINVFVAPQFSLGLGGKYTSNTDSSAVGFFGVRRREDRSGTLQTSDVPDNYTGTNKYFNQINWGINYGVGYQVKGLLFTGQYHMGLSNNEPHYSNPDQEAHRGNVVTKNYGFTVGLTYFFGDTK | not soluble
12 | MGSDKIHHHHHHMWQFPLFETILIEQGQAKNISYHQQRYEKSLLKFYPKMKLQPFDLAKIIAKHTALFTHREGLIRCRIDYNHHDYVLQCFPYQQKVYRTFKPVFCDHIDYSLKFSDRTLLNNLLKQKEECDEIMIIRQGKVTDCSIGNLIFRQNNQWITPDKPLLEGTQRAKLLEQKKIIAREIFFEDLAQYEEIRLINAMNGL | not soluble
13 | MRVDLERQQHQFLRRTYGPQHRLTTQQALTVMRVAAREQTRYSQRTTQCVAAHLLEQRAAVQQELQRARQLQSGNVDDALDSLTELKDTVDDVRATLVDSVSATCDLDLEVDDAVLEHHHHHH | not soluble
